Measured values taken from the supplement of paper PMC10126150.
± gives the standard deviation of the averaged measurements.

Test system: ATP
Test: switch fluorescence ratio, 500 uM ATP over buffer (Cy3 cluster intensity, sum of 5 cycles each) (fold (ratio)); higher = stronger signal-on switching upon ATP binding; sequences stand for … in TCGTCGGCAGCGTCAGATGTGTATAAGAGACAGTTTTTTTTTTTTTTTTTTTTTTTTT…TC
Conditions: aptamer strand: ATP DNA aptamer (quencher-CACCTGGGGGAGTATTGCGGAGGAAGG + anchor), 100 nM annealed; ATP concentration: 500 uM
How it was run: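 Exposure to 500 uM ATP lasted 15 min at 22 °C before imaging, and a selection-buffer image was taken beforehand, for Cy3-labelled switching-strand clusters on a modified Illumina MiSeq flow-cell annealed to 100 nM quencher-labelled ATP aptamer. Five buffer/ATP cycles were run with NaOH stripping and re-annealing between them. The fluorescence ratio per cluster is summed target-cycle over summed buffer-cycle Cy3 intensity, averaged per switch-domain sequence. Clusters outside 100-1000 RFU were excluded.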

Sequence | switch fluorescence ratio
GAGCATTTTT | 0.969 ± 0.029
TTATTGCGGG | 0.967 ± 0.019
GGGTACAGTT | 1.01 ± 0.018
TGATGCTTTT | 1.01 ± 0.035
TTTGGTCGGG | 1.01 ± 0.03
TCGAGGACTA | 0.999 ± 0.032
TAATTTGGTG | 1.043 ± 0.0083
CGAAGGGTGG | 0.993 ± 0.028
AAAAGGGCTT | 1 ± 0.012
AGTTGGAAAG | 0.977 ± 0.013
AAATTTATAA | 0.984 ± 0.044
ACGGTTGTTT | 1.0154 ± 0.00077
ATTGTGAAAT | 0.999 ± 0.0025
GTTGGGTGGT | 0.968 ± 0.01
CTGGAGCGCT | 1.22 ± 0.054
GTATGGGATA | 1.01 ± 0.035
TGGATATGAT | 0.998 ± 0.0028
TTGATATGGA | 0.98 ± 0.022
TTCCACCAAA | 1.07 ± 0.033
CAGAAATTAG | 1.005 ± 0.0024
AATTTTGATG | 0.971 ± 0.018
GTGTTCGACG | 0.995 ± 0.056
GTTGTTCGGT | 1.01 ± 0.015

Sequence | switch fluorescence ratio
GTGGTCCGCG | 1.017 ± 0.0015
TAGGCAGGGC | 1.04 ± 0.11
ATGGCAAAGA | 0.9828 ± 0.0096
TGCCAGATTT | 0.993 ± 0.041
CGGCTAACAA | 1.02 ± 0.013
CGTTGATGTC | 1.01 ± 0.13
AATGGAGAAC | 1.01 ± 0.028
GGACTAGGTG | 1.16 ± 0.044
GTTGCAGTGT | 1.02 ± 0.037
TTGCTGTGAG | 0.9762 ± 0.0012
GGGATCGAGG | 1.01 ± 0.035
TTTCGTAAAA | 1.002 ± 0.0057
CGGGCGTGCC | 0.966 ± 0.014
GATTGTAGGC | 1.03 ± 0.011
GAGGGGCAGG | 1.02 ± 0.074
TTTGGGACGG | 0.999 ± 0.065
TGACGGGGGC | 1.01 ± 0.014
GATTGTCCGT | 0.981 ± 0.031
AAATAATGCA | 0.9863 ± 0.0076
GAGCATTTCC | 1.1 ± 0.043
GTGGACCTGA | 1.07 ± 0.02
TTGTTGTAGC | 1.02 ± 0.015
CGGGGGAAGG | 0.979 ± 0.026

Sequence | switch fluorescence ratio
ATCTATTGGG | 0.991 ± 0.0066
GTGAAAAGCA | 1.04 ± 0.014
CGGATGATAG | 1 ± 0.059
GCCCGAGCAG | 1.22 ± 0.062
GTTGCGAAGG | 0.983 ± 0.02
TGATGAAAAA | 1.01 ± 0.04
TTTGGAATCA | 1.008 ± 0.0098
GACTTTTCGA | 1 ± 0.04
CTAGGGGTAT | 1.03 ± 0.14
ATGAAGTCGC | 1.01 ± 0.025
ACTTGTAGTA | 1.01 ± 0.012
GCTGGGGGGA | 0.981 ± 0.033
CAAAATATAT | 1.06 ± 0.042
GGCGTGATGC | 1.091 ± 0.0076
CGTGTTCGGA | 0.977 ± 0.016
GCGGGTAGCG | 0.983 ± 0.022
GGTCATCTTG | 0.975 ± 0.02
AAGGTTACGC | 1.05 ± 0.024
GTATGGATTC | 0.987 ± 0.057
TTGATGGTAA | 0.977 ± 0.022
TGTTGGTAGG | 0.964 ± 0.03
GATGGGTTTG | 0.991 ± 0.028
ACCCAGGGCG | 1.44 ± 0.13

Sequence | switch fluorescence ratio
GATATTTTAG | 1.009 ± 0.0087
CAAGGGGGGA | 1.01 ± 0.023
CGGATAGTGC | 1.07 ± 0.11
ATGTTCTGGG | 1.04 ± 0.029
TGGGCTTGTT | 0.999 ± 0.036
GGACTAGAGC | 1.01 ± 0.069
TTTTACTGAT | 1.02 ± 0.026
TTATTTGAGT | 1.06 ± 0.12
TTGTAGATGC | 1.03 ± 0.071
AAGCGAGGTT | 0.991 ± 0.021
GCTATTATTA | 0.974 ± 0.045
AGGTATCAAT | 1 ± 0.053
TTCAGTTCGT | 1.008 ± 0.0089
CGATCGGGAT | 1.12 ± 0.13
CCTGGGGTAA | 1.09 ± 0.039
TCATGTTAGG | 0.994 ± 0.0075
GCGAGTCTCA | 1.007 ± 0.01
GAGGGGACTT | 1.09 ± 0.13
GGTTTTCTGG | 1.02 ± 0.027
TTCCGGTTGT | 1.03 ± 0.011
TTAAAGGGA | 1.01 ± 0.022
AGGGGCAAAC | 1.45 ± 0.078
CGGAGTCGCC | 1.01 ± 0.012

Sequence | switch fluorescence ratio
TTAGTAGGTG | 0.98 ± 0.024
AGGGATAAAA | 1.02 ± 0.055
AACCCGCACC | 2.75 ± 0.12
CTGGTTACGC | 1.003 ± 0.0057
TTGCGCGGAC | 2.34 ± 1.5
TAGAGTGGGC | 0.991 ± 0.013
CTCAGTATCG | 1.012 ± 0.002
GACCCAGGTA | 2.75 ± 0.18
GGGATTCCTG | 0.9777 ± 0.0061
GGTGCATGGC | 1.04 ± 0.04
TTATTAGAGC | 0.958 ± 0.085
GCTTTGGCTT | 1 ± 0.03
AGCGGATTCT | 0.984 ± 0.041
GGCACTAGGG | 0.94 ± 0.077
AAGGATTTTT | 0.998 ± 0.03
TAACGGGGCG | 1.01 ± 0.049
GATGGGAAAA | 1.01 ± 0.021
TCCGCGACGG | 1.4 ± 0.2
GATCTAGTTA | 0.996 ± 0.054
AGGGGTTTGC | 0.957 ± 0.021
AATACGGGGG | 1.03 ± 0.13
ACGATGAAGG | 1.01 ± 0.021
GTTGGTGGTG | 0.9719 ± 0.0029

Sequence | switch fluorescence ratio
AAACTGGTAT | 0.982 ± 0.02
CGGGGAGTTT | 0.978 ± 0.05
TTTGATGTAG | 1.01 ± 0.011
GACTGCTACT | 1.51 ± 0.028
AGGCCCCCCA | 1.328 ± 0.013
TGGGAAATTA | 0.999 ± 0.024
GAAAATCAGC | 0.976 ± 0.071
TGGGGTTTCC | 1.16 ± 0.32
AATATCTGTT | 0.997 ± 0.019
AAAAGTGGGG | 1.02 ± 0.019
AGGAGACTTA | 0.9877 ± 0.0047
ATTACGTTGG | 0.998 ± 0.024
GGTTTCCATT | 1 ± 0.054
TAAATGAAGG | 1.04 ± 0.048
TGGAGATTGG | 0.969 ± 0.023
ACCTTGATTG | 1.01 ± 0.018
TATGGTAGGG | 0.9886 ± 0.0076
TATATCGGGT | 0.9968 ± 0.0072
GCTATTAGTT | 1.04 ± 0.017
TTAGGTTTTG | 1.02 ± 0.061
GGGTGGTGGC | 0.964 ± 0.082
TGATCATACT | 1.035 ± 0.0046
TAGGTTAACT | 0.956 ± 0.024

Sequence | switch fluorescence ratio
TACTTCATTC | 1.037 ± 0.0095
AACTGTTGGT | 0.978 ± 0.025
CTAGGTTTTG | 0.995 ± 0.047
GGGGTCAGTG | 0.998 ± 0.054
TAGCCGGGGT | 1.04 ± 0.054
CACTCTGTGT | 1.02 ± 0.026
TTTTAAGTGC | 1 ± 0.027
TACCAGCATT | 1.1 ± 0.051
TTCTGGGTGG | 0.987 ± 0.04
TTGGGGTCCG | 0.977 ± 0.053
TTAACAATCG | 1.02 ± 0.02
GTAGGGGTTG | 1.01 ± 0.053
TTATATTGGT | 0.974 ± 0.028
TCTTATCGTT | 0.964 ± 0.019
TTTCTAGGGT | 0.994 ± 0.017
TGGATTAGGT | 1.01 ± 0.021
TGCGTGTTTT | 1.03 ± 0.015
CAGACGGAGT | 1.039 ± 0.01
GGTAAAGTTG | 1.07 ± 0.098
